Target: α6β1. α6β4 (human) (UniProt P23229)
Experiment: flow cytometry on HMVEC-d; dis-Fc binding with 5-8 fold excess α6β1/α6β4 mAb (GoH3, 439-9B; competitor) vs control mAb

Chain of ADAM-22dis-Fc (Fc fusion) (chain): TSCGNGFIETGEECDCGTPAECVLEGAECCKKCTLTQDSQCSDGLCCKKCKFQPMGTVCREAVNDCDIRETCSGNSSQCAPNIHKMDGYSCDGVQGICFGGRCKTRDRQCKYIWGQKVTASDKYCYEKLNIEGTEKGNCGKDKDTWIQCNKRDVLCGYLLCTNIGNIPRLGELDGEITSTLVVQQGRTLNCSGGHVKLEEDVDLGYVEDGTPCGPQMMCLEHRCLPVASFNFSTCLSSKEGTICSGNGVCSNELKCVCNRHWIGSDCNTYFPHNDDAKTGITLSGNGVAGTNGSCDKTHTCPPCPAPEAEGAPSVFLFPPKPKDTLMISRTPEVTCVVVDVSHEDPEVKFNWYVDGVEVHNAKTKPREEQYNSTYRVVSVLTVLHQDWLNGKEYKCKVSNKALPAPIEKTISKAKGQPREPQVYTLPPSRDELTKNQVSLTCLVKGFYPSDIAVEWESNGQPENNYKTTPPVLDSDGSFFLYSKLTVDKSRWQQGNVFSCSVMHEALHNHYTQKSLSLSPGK
Chain of ADAM-23dis-Fc (Fc fusion) (chain): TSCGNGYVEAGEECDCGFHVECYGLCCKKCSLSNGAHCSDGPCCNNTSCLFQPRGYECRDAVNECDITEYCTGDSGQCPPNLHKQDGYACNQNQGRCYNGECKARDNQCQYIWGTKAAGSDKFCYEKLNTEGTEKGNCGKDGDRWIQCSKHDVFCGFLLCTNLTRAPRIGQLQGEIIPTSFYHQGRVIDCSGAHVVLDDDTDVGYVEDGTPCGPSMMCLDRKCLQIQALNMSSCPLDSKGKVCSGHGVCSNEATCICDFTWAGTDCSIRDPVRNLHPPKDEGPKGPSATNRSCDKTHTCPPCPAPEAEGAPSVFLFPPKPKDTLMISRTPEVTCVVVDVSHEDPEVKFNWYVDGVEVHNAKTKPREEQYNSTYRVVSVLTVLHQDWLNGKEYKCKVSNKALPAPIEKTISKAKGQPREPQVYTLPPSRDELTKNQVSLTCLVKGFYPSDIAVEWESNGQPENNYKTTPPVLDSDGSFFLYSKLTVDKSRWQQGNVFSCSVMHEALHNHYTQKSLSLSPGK

Substance | percent inhibition of binding
ADAM-22dis-Fc (Fc fusion) | 32%
ADAM-23dis-Fc (Fc fusion) | 31%

— patent US20020042368A1
